Results from patent US20110059076A1, “HUMAN SERUM ALBUMIN LINKERS AND CONJUGATES THEREOF” (priority 2008, published 2011).
Entries after “also recorded” stand apart in the source; their conditions may differ.

Assays:
[1] = tested on: control BT-474-M3 breast cancer cell xenografts; assay: BT-474-M3 shControl xenografts; type: in vivo, nude mice; conditions: 30 mg/kg B2B3-1 every 3 days or 10 mg/kg trastuzumab every week, i.p.
Procedure: ShRNA technology is applied to knock out the activity of the tumor suppressor gene phosphatase and tensin homolog (PTEN) in BT-474-M3 breast cancer cells. Briefly, cultured BT-474-M3 cells are transfected with shPTEN or shControl RNA by retroviral transfection. Transfected cells with reduced PTEN are selected using FACS and subsequently injected subcutaneously into the right flank of nude mice to establish xenograft tumors. Cells transfected with a control vector are injected into the left flank of the same mouse. […] All injections are done i.p.

[2] = tested on: Ki67 in BT474-M3 breast tumor xenografts; assay: Ki67 staining of xenograft tumors; type: in vivo; conditions: 30 mg/kg every 3 days, 4 doses
[3] = tested on: pErbB3 and pAKT in BT-474-M3 cells; assay: Western blot of heregulin induced ErbB3 activity in BT-474-M3 cells; type: cell-based; conditions: BT-474-M3, 24 hours, 10 nM or 100 nM, with or without 5 nM HRG 1β EGF
Description: Lysates are subjected to immunoblot analysis for ErbB3, pErbB3, AKT, and pAKT.

[4] = tested on: CD31 in BT474-M3 breast cancer xenograft tumors; assay: CD31 staining (vessel density) of xenograft tumors; type: in vivo; conditions: 30 mg/kg every 3 days, 4 doses
Description: Tumors are stained for the presence of vascular marker CD31.

[5] = target: T1, recombinant extracellular domain of ErbB2 (Homo sapiens, UniProt P04626); assay: specificity competition ELISA on ErbB2-coated plates; conditions: half-maximal binding concentration of B2B3-1
T1 construct: Plates are coated with the recombinant extracellular domain of either ErbB2 or ErbB3
Description: (§1) Plates are coated with the recombinant extracellular domain of either ErbB2 or ErbB3.

[6] = pharmacokinetics in Cynomolgus monkeys (dose range-finding toxicology study); type: in vivo, Cynomolgus monkey
Procedure: Blood samples for pharmacokinetic analysis are also obtained from a dose range-finding toxicology study in female Cynomolgus monkeys. […] Sampling occurred prior to and 5 minutes after dosing on each dosing day (study days 1, 4, 7 and 10) to provide pre-dose and peak/trough concentrations, and at 1, 2, 4, 8, 24 and 48 hours after the end of the first infusion on day 1 and at 1, 2, 4, 8, 24, 48, 72 and 120 hours after the last infusion on day 10. For recovery animals dosed at 200 mg/kg serum samples are also collected at 168, 336 and 456 hours after the last infusion.
Cynomolgus monkey serum samples are assayed using the ErbB2/ErbB3 ELISA method described previously.

[7] = tested on: ErbB3 phosphorylation in ZR75-1 breast cancer cells; assay: agonistic activity: pErbB3 ELISA in ZR75-1 cells without HRG; type: cell-based; conditions: serum starved ZR75-1 cells, 1 μM, 24 hours, no HRG
Procedure: (§2) Except as noted, ELISA reagents for total and phospho-ErbB3 ELISAs are purchased from R&D Systems as DUOSET kits. 96-well NUNC MAXISORB plates are coated with 50 μl of an antibody and incubated overnight at room temperature. Next morning, plates are washed 3 times with 1000 μl/well in a BIOTEK plate washer with Dulbecco's phosphate buffered saline without calcium or magnesium (PBS) with added Tween detergent (PBST) (0.05% Tween-20). […] The plates are washed 3 times with 1000 μl/well in the BIOTEK plate washer with PBST. Cells are grown at 37° C. and 5% carbon dioxide, washed with cold PBS, then harvested with mammalian protein extract (MPER) lysis buffer (Pierce, 78505) to which 150 mM NaCl, 5 mM sodium pyrophosphate, 10 uM bpV (phen), 50uM phenylarsine, 1 mM sodium orthovanadate, and protease inhibitor cocktail (Sigma, P2714) is added. 50 μL of cell lysates and standards diluted in 50% Lysis buffer and 1% BSA are used in duplicates for further processing. Samples are incubated for 2hrs at 4° C. on a plate shaker and washed as before. About 50 μl of a detection antibody diluted in 2% BSA, PBST is added and incubated for about 1-2 hrs at room temperature. […] About 50 μL of SUPERSIGNAL ELISA Pico (Thermo Scientific) substrate is added and the plate is read using a FUSION plate reader. […]
Cells are lysed and the pErbB3 content of the lysates is assessed by ELISA generally as described above.

[8] = target: T2, recombinant extracellular domain of ErbB3 (Homo sapiens, UniProt P21860); assay: specificity competition ELISA on ErbB3-coated plates; conditions: half-maximal binding concentration of B2B3-1
T2 construct: Plates are coated with the recombinant extracellular domain of either ErbB2 or ErbB3
Description: as §1

[9] = tested on: pAKT in BT-474-M3 xenografts that have reduced PTEN activity; assay: pAKT Western blot of PTEN deficient BT-474-M3 xenograft tumors; type: in vivo; conditions: 30 mg/kg B2B3-1 every 3 days or 10 mg/kg trastuzumab weekly
Description: Equal quantities of protein are loaded in each lane and total protein levels are controlled by probing for PCNA.

[10] = tested on: ErbB3 phosphorylation in ZR75-30 cells; assay: HRG-induced ErbB3 phosphorylation ELISA in ZR75-30; type: cell-based, human; conditions: ZR75-30, dose titration 24 hours, 5 nM HRG 1β EGF domain 10 minutes
Procedure: as §2

[11] = tested on: MALME-3M melanoma cells (ErbB2 and ErbB3 receptors); assay: cell binding by flow cytometry, apparent binding affinity; conditions: MALME-3M cells
Procedure: Cell binding is assessed by flow cytometry and apparent binding affinities are determined for each molecule. Control cells are incubated with secondary antibody alone.

[12] = tested on: p27^kip1 in BT474-M3 breast tumor cells; assay: p27kip1 sub-cellular location by immunofluorescence; type: cell-based; conditions: 1 μM, 6 hours
Procedure: The sub-cellular location of p27^kip1 is assessed using immunofluorescence techniques.

[13] = tested on: Calu-3 (human lung adenocarcinoma) xenograft; assay: Calu-3 xenograft model; type: in vivo, mice; conditions: Calu-3, 30 mg/kg every 3 days
Description: Calu-3 (human lung adenocarcinoma; FIG. 17A), SKOV-3 (human ovarian adenocarcinoma; FIG. 17B), NCI-N87 (human gastric carcinoma; FIG. 17C), ACHN (human kidney adenocarcinoma; FIG. 17D), and MDA-MB-361 (human breast adenocarcinoma; FIG. 17E) xenograft model are shown.

[14] = tested on: AKT phosphorylation in ZR75-30 cells; assay: HRG-induced AKT phosphorylation ELISA in ZR75-30; type: cell-based, human; conditions: ZR75-30, dose titration 24 hours, 5 nM HRG 1β EGF domain 10 minutes
[15] = Cynomolgus monkey (1st dose), 4 mg/kg
[16] = Cynomolgus monkey (1st dose), 20 mg/kg
[17] = Cynomolgus monkey (1st dose), 200 mg/kg
[18] = Cynomolgus monkey (4th dose), 4 mg/kg
[19] = Cynomolgus monkey (4th dose), 20 mg/kg
[20] = Cynomolgus monkey (4th dose), 200 mg/kg
[21] = Cynomolgus monkey (4th dose), 200 mg/kg, recovery animals

B2B3-1: bispecific scFv antibody fusion: anti-ErbB3 scFv H3 and anti-ErbB2 scFv B1D2 joined by a modified human serum albumin (HSA) linker
size of tumors formed by control BT-474-M3 cells [1]: promoted a reduction
Ki67 expression compared to HSA treated tumors [2]: reduced expression pattern; also recorded: reduction
inhibition of pAKT [3]: in a ligand dependent manner
inhibition of pErbB3 [3]: in a ligand dependent manner
vessel density (CD31) compared to HSA treated tumors [4]: marked decrease in vessel density; also recorded: reduction of vessel density
blocking of binding to ErbB2-coated plates by soluble extracellular domains of EGFR, ErbB2, ErbB3 or ErbB4 [5]: only soluble ErbB2 extracellular domain blocked; also recorded: binds specifically
AUC [6, 15]: 3.44E+03 hr-μg/ml
Clearance [6, 15]: 28.1 mL/day/kg
T½β [6, 15]: 39.1 h
AUC [6, 16]: 2.29E+04 hr-μg/ml
Clearance [6, 16]: 21.1 mL/day/kg
T½β [6, 16]: 33.1 h
AUC [6, 17]: 3.18E+05 hr-μg/ml
Clearance [6, 17]: 15.4 mL/day/kg
T½β [6, 17]: 68.8 h
AUC [6, 18]: 7.20E+03 hr-μg/ml
Clearance [6, 18]: 14.4 mL/day/kg
T½β [6, 18]: 44.9 h
AUC [6, 19]: 8.20E+04 hr-μg/ml
Clearance [6, 19]: 6 mL/day/kg
T½β [6, 19]: 122.5 h
AUC [6, 20]: 5.72E+05 hr-μg/ml
Clearance [6, 20]: 8.4 mL/day/kg
T½β [6, 20]: 69.7 h
AUC [6, 21]: 5.99E+05 hr-μg/ml
Clearance [6, 21]: 8.16 mL/day/kg
T½β [6, 21]: 66.6 h
Mean half-life estimates ([6]; Cynomolgus monkey, day 1, 4, 20 or 200 mg/kg): 38.3 to 67.2 h
levels of phosphorylated ErbB3 with B2B3-1 alone (agonistic activity) [7]: comparable to the levels in untreated cells; also recorded: does not stimulate ErbB3 phosphorylation
blocking of binding to ErbB3-coated plates by soluble extracellular domains of EGFR, ErbB2, ErbB3 or ErbB4 [8]: only soluble ErbB3 extracellular domain blocked; also recorded: binds specifically
pAKT in tumors (densitometry of Western blot) [9]: significantly less pAKT; also recorded: able to inhibit phosphorylation
inhibition of HRG induced ErbB3 phosphorylation [10]: inhibits
apparent binding affinity KD [11]: significant increase in apparent binding affinity
sub-cellular location of p27^kip1 [12]: translocated to the nucleus; also recorded: translocation of cell cycle inhibitor p27^kip1 to the nucleus
tumor size reduction [13]: efficacious
inhibition of HRG induced AKT phosphorylation [14]: inhibits
